Reference: patent US20180016620A1 (KITE PHARMA, published 2018)
No end group written: not given here.

Assays:
[1] = target: T1, GSTSGSGKPGSGEGST SEQ ID NO: 485 (also: biotin on N-terminus or on added C-terminal Lys, which not given here); experiment: ELISA: antibody captured on Protein G plate, biotinylated peptide, streptavidin-HRP, chemiluminescence; y axis 0 to 7000000 without unit
T1 construct: also called 18 mer lacking its 2 C-terminal residues
T1 peptide: GSTSGSGKPGSGEGST
Description: (§1) The antibodies (i.e., antigen binding molecules) were epitope mapped via ELISA using the full length peptide, […] (SEQ ID NO:1), and variants truncated on either the N- or C-terminus and containing either a biotin moiety on the N-terminus, or a lysine residue with a biotin moiety on the C-terminus. The antibodies were captured in 96-well plate format using plates pre-coated with Protein G (Pierce). The plates were washed 6× in PBST buffer followed by incubation with target peptides. An additional 6× wash was performed with PBST and the antibodies were further incubated with streptavidin-HRP. Upon a final 6× wash in PBST, signal was detected and quantified via enhanced chemiluminescense kit (ECL, from GE Healthcare) and a Varioskan Flash plate reader (Thermo Fisher).

[2] = target: T2, GSTSGSGKPGSGEG SEQ ID NO: 486 (also: biotin on N-terminus or on added C-terminal Lys, which not given here); experiment: as above
T2 construct: also called 18 mer lacking its 4 C-terminal residues
T2 peptide: GSTSGSGKPGSGEG
Description: as §1

[3] = target: T3, GKPGSGEGSTKG SEQ ID NO: 490 (also: biotin on N-terminus or on added C-terminal Lys, which not given here); experiment: as above
T3 construct: also called 18 mer lacking its 6 N-terminal residues
T3 peptide: GKPGSGEGSTKG
Description: as §1

[4] = target: T4, full length 18 mer linker peptide GSTSGSGKPGSGEGSTKG (also: biotin on N-terminus or on added C-terminal Lys, which not given here); experiment: as above
T4 construct: Synthetic linker peptide; also called full-length linker peptide; Whitlow linker
T4 peptide: GSTSGSGKPGSGEGSTKG
Description: as §1

[5] = target: T5, GSGKPGSGEGSTKG SEQ ID NO: 489 (also: biotin on N-terminus or on added C-terminal Lys, which not given here); experiment: as above
T5 construct: also called 18 mer lacking its 4 N-terminal residues
T5 peptide: GSGKPGSGEGSTKG
Description: as §1

[6] = target: T6, SEQ ID NO: 496 GSTSGSGKPGSGE (also: biotin on N-terminus or on added C-terminal Lys, which not given here); experiment: epitope mapping ELISA: antibody captured on Protein G plate, biotinylated peptide, streptavidin-HRP, chemiluminescence
T6 peptide: GSTSGSGKPGSGE
Description: as §1

[7] = target: T7, SEQ ID NO: 485 GSTSGSGKPGSGEGST (also: biotin on N-terminus or on added C-terminal Lys, which not given here); experiment: as above
T7 peptide: GSTSGSGKPGSGEGST
Description: as §1

[8] = target: T8, SEQ ID NO: 498 KPGSGEGSTKG (also: biotin on N-terminus or on added C-terminal Lys, which not given here); experiment: as above
T8 peptide: KPGSGEGSTKG
Description: as §1

[9] = target: T9, SEQ ID NO: 486 GSTSGSGKPGSGEG (also: biotin on N-terminus or on added C-terminal Lys, which not given here); experiment: as above
T9 peptide: GSTSGSGKPGSGEG
Description: as §1

[10] = target: T10, SEQ ID NO: 497 SGKPGSGEGSTKG (also: biotin on N-terminus or on added C-terminal Lys, which not given here); experiment: as above
T10 peptide: SGKPGSGEGSTKG
Description: as §1

[11] = target: T11, SEQ ID NO: 489 GSGKPGSGEGSTKG (also: biotin on N-terminus or on added C-terminal Lys, which not given here); experiment: as above
T11 peptide: GSGKPGSGEGSTKG
Description: as §1

[12] = target: T12, SEQ ID NO: 490 GKPGSGEGSTKG (also: biotin on N-terminus or on added C-terminal Lys, which not given here); experiment: as above
T12 peptide: GKPGSGEGSTKG
Description: as §1

[13] = target: T13, FL_peptide_OVA (also: conjugated to ovalbumin, site and chemistry not given here); experiment: ELISA as for the peptides of the figure; y axis 0 to 7000000 without unit
T13 construct: not shown: the ovalbumin carrier protein
T13 peptide: GSTSGSGKPGSGEGSTKG
Description: as §1

Measured: binding result

B1: Clone 16 anti-linker antibody (antibody, V domains shown)
VH: QSLEESGGRLVTPGTPLTLTCTVSGSDISSYHMGWVRQAPGKGLEYIGIIVSSGSAYYATWAKGRFTISRTSTTVDLKITSPTTEDSATYFCARNQYSGYGFSFWGPGTLVTVSS
VL: AVVLTQTPSPVSTAVGGTVTINCQSSHSVYYGDWLAWYQQKPGQPPKLLIYRASNLASGVPSRFKGSGSGTQFTLTISGVQCDDAATYYCLGGYDDDGETAFGGGTEVVVKD
notes: Rabbit monoclonal from a hybridoma; also called Clone 16-6; 16-6
binds: [1] | [2] | [3] | [4] | [5] | [6] | [7] | [8] | [9] | [10] | [11] | [12] | [13]

B2: Clone 8 anti-linker antibody (antibody, V domains shown)
VH: QSVEESGGRLVTPGTPLTLTCTASGFTISNLAIIWVRQAPGKGLEYIGDIDGRGDIYCATWAKGRFTISKTSTTLDLRFTSPTTEDTATYFCAVDGDGSGWGDFNFWGPGTLVTVSS
VL: AYDMTQTPASVEVAVGGTVSIKCQASQSISTALAWYQQKPGQPPKLLIYRASTLASGVSSRFKGSGSGTQFTLTISGVECDDAATYYCQQGWSTVNVDNVFGGGTEVVVRD
notes: Rabbit monoclonal from a hybridoma; also called Clone 8-4; 8-4
binds: [1] | [2] | [4] | [5] | [6] | [7] | [9] | [10] | [11] | [12] | [13]
